# From publication PMC6879612 (Nature Communications, 2019)
# B1: P1C1 (parental clone), human IgG1 (antibody, V domains shown)
# VH: QLQLQESGPGLVKPSQTLSLTCAVSGGSISSGGYYWSWIRQRPGKGLEWIGYIYYSGSTYYNPSLKSRLTISVDTSKNQFSLKLSSVTAADTAVYYCARENFGAFDHWGQGTLVTVSS
# VL: QAVLTQPSSVSGAPGQRVTISCTGSSSNIGADYETHWYQHLPGTAPKLLIYGNTNRPSGVPHRFSGSKSGTSASLAITGLQAEDEADYYCQSYDSNLSAWVFGGGTKLTIL
# notes: heavy framework 1 of the parental clone; heavy CDR1 (Kabat); heavy framework 2, CDR2, framework 3; heavy CDR3 (Kabat); heavy framework 4; light framework 1 of the parental clone; light CDR1 (Kabat); light framework 2, CDR2, framework 3; light CDR3 (Kabat); light framework 4; Human IgG1; From a naive human Fab phage library (Humanyx); also called parental P1C1 antibody; source: HEK293-6E, pTT5 …
# Molecular target: T1, p53_(125–134)/HLA-A24 pMHC, soluble recombinant (Homo sapiens, HLA-A*24:02, biotin where the biotinylated pMHC was used (site not stated))
# T1 construct: HLA-A24 heavy chain (α-chain), recombinant; β2-microglobulin, recombinant; source: biotinylated or non-biotinylated; copies: + +
# Test: ELISA; biotinylated pMHC captured on NeutrAvidin-coated wells; IgG1 in solution, detected with HRP anti-human IgG Fcγ
# Details: both partners purified
binder,measurement,value
B1,binding result,binds
